Laboratory results: doi:10.1101/706143

How the values were obtained:
[1] = target: Cas7 (V. cholerae Type I-F variant CRISPR-Cas system) (V. cholerae); experiment: cryo-EM structure
[2] = target: TniQ (transposition protein of the Vibrio cholerae Tn6677 transposon) (V. cholerae); experiment: cryo-EM structure

Substance | stoichiometry N [1] | stoichiometry N [2]
Cas7 (V. cholerae Type I-F variant CRISPR-Cas system) (natural protein) | 6 | 
TniQ (transposition protein of the Vibrio cholerae Tn6677 transposon) (natural protein) |  | 2
